From the nanobody polyreactivity screen of Harvey et al. (2022)

Assay: yeast display, Sf9 membrane polyspecificity reagent, FACS + sequencing; frameworks hold sequencing errors
How it was run: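 Using colony PCR, genes from sorted yeast display clones were amplified, then sequenced on MiSeq at 2 × 250 and filtered by CDR length. The clones had been stained with 10% biotinylated, detergent-solubilized Sf9 membrane reagent for 1 hour at 4 °C and sorted by FACS into low and high (top ~1%) gates on anti-HA and streptavidin fluorescence. Polyreactivity labels come from the gate of origin.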

QVQLVESGGGLVQAGGSLRLSCAASGLIFRYYTMGWYRQAPGKERELVATITKSGSSTYYADSVKGRFTISRDNAKNTVYLQMNSLKPEDTAVYYCAARAYPSYPRGVYAYYYWGQGTQVTVSS
polyreactivity (PSR sort gate): high polyreactivity

QVQLVESGGGLVQAGGSLRLTSAGSGRIFDYNAMGCYRQAPGKERELVAAITYSGGSTYYADSVKGRFTISRDNAKNTVYLQMNSLKPEDTAVYYCAAPDPYYHYRYPWQSRYDYNYWGQGTQVTVSS
polyreactivity (PSR sort gate): low polyreactivity

QVQLVESGGGLVQAGGSLRLSCAASGFTFVSNAMGWYRQAPGKERELVAVISSGGSTTYADSVKGRFTISRDNAKNTVYLQMNSLKPEDTAVYYCATTNYQDSYEGGDYWGQGTQVTVSS
polyreactivity (PSR sort gate): low polyreactivity

QVQLVESGGGLVQAGGSLRLSCAASGIIFRYYAMGWYRQAPGKERELVAAISRGGSTYYADSVKGRFTISRDNAKNTVYLQMNSLKPEDTAVYYCAATSYRRTGYNYWGQGTQVTVSS
polyreactivity (PSR sort gate): high polyreactivity

QVQLVESGGGLVQAGGSLRLSCAASGLTFVFYAMGWYRQAPGKERELVAAISRRGGRTYYADSVKGRYTISRDNAKNTVYVQMNSLKPEDTAVYYCNARVRSHRCNYWGQGTQVTVSS
polyreactivity (PSR sort gate): high polyreactivity

QVQLVESGGGLFQAGRSLRLSCAASGRIFVANAMGWYRQAPGIERELVAAISGRGSRTYYADSVKGRFTISRDNAKNTVYLQMNSLKPEDTAVYYCAARYRYDGRYDYWGQGTQVTVSS
polyreactivity (PSR sort gate): high polyreactivity

QVQLVESGGGLVQAGGSLRLSCAASGSTIRYYAMGWYRQAPGKERELVAANTKSGGSTYYADSVKGRFTISRDNAKNTVYLQMNSPKPEDTAVYSCAAVRRWYYPALSEHDYWGQGTQVTVSS
polyreactivity (PSR sort gate): low polyreactivity

QVQLVESGGGLVQAGGSLRLSCAASGSTFWSNAMGWYRQAPGKERELVAAISISDGNTYYADSVKVRFTISRDNAKNTVYLQMNSLKPEDTAVYYCATVGSEDGDPGFDYWGQGTQVTVSS
polyreactivity (PSR sort gate): low polyreactivity

QVQLVESGGGLVQAGGSLRLSCAASGYIFILYAKGWYRQATGKERQLVATISSNAVSTYYADSVKGRFTISRDNAKITVYLQMNSLKPEDTAVYYCNVEYTPNTVSGYDYWGQGTQVTVSS
polyreactivity (PSR sort gate): low polyreactivity

QVQLVESGGGLVQAGGSLRLSCAASGRTFYRYTMGWYRQAPGKERELVAGISWRGGTTYYADSVKGRFTISRDNAKNTVYLQMNSLKPEDTAVYYCAAKAGYRYGSLAYYKYDYWGQGTQVTVSS
polyreactivity (PSR sort gate): high polyreactivity

QVQLVESGGGLVQAGGSLRLSCAASGRIFTPYAMGWYRQAPGKERELVAVIRDGSTYYADSVKGRFTISRDNAKNTVYLQMNSLKPEDPAVSYCSYDIWVWWSGAYDYWGQGNQVTVSS
polyreactivity (PSR sort gate): low polyreactivity

QVQLVESGGGLVQAGGSLRLSCAASGSTFPRNAMGWYRQAPGKERELVAGISRGSSTNYADSVKGRFTISRDNAKNTVYLQMNSLKPEDTAVYYCAAALSVTARLDYWGQGTQVTVSS
polyreactivity (PSR sort gate): low polyreactivity

QVHLVESGGGLVQAGGSLRLSCAASGRTFPSNVMGWYRQAPGKERELVAGITWRGASTYYADSVKGRFTISRDNAKNTVYLQMNSLKPEDTAVYYCAVRTQYRRYEYWGQGTKVTVSS
polyreactivity (PSR sort gate): high polyreactivity

QVQLVESGGGLVQAGGSLRLSCAASGFIFGYNAMGWYRQAPGKERELLAAITWIGGTTYYADSVKGRFTISRDNAKNTVYLQMNSLNPEDTAVYYCARQRSYGRYSYSYVYEYWGQGTLVTVSS
polyreactivity (PSR sort gate): high polyreactivity

QVQLVESGGGLVQAGGSLRLSCAASGSTFTYYAMGWSRQEPGIEREFVAAISRRGGSTYYADSVKGRFTISRDNAMNTVYLQMKSLKQEDTPVYYCNVVIYSYGINGRYDYWGQGTQDTVSS
polyreactivity (PSR sort gate): high polyreactivity

QVQLVESGGGLVQAGGSLRLSCAASGRTFRKYAMGGYRHAPGKEREFVASITWSGGSTYYADSVKGRFTISRDNAKNTVYLQMNSLKPEDTAVYFCAAESWFKYVYWGQGTQVTVSS
polyreactivity (PSR sort gate): low polyreactivity

KVQVVESGGGLVQAGGSLRLSCAASGRIFGVYAMGWYRQAPGKERELVAAINYSGTRTYYADSVKGRFTISRDNAKNTVYLQMNSLKPEDSAVYYCAARRGSYSVTEYWGQGTQVTVSS
polyreactivity (PSR sort gate): high polyreactivity

QVQLVESGGGLVQAGGSLRLSCAASGRTFLVYSMGWYIQAPGKERELVAAISFSDGITYYADSVKGRFTISRDNAKNTVYLQMNRLKPEDTAVYYCATEILDYYYGSEYDYWGQGTQVTVTS
polyreactivity (PSR sort gate): high polyreactivity

QVQLVESGGGLVQAVGSLSLSCAASGIIFTWYDMGWYRPAPGKERELVAAISYIGGGSTYYADSVKGRFTISRDNAKNTVYLQMNSLKPEDTAVYYCATDFYYAKYGYWGQGTQVTVSS
polyreactivity (PSR sort gate): low polyreactivity

QVQLVESGGALVQAGGSLRLSCAASGLIFYYYAMGWNRPAPGKERELVAAISGGGSTYYADSVKGRFTISRDNAKNTVYLQMNSLKPEDTAVYYCAASFRYPSWLYDYWGQGTQVTVSS
polyreactivity (PSR sort gate): low polyreactivity

QVQLVESGGGLVQAGGSLRLSCAASGFTLGFYAMGWYRQAPGKESELVAAINWRGGSTYYADSVKGRFTISRDNAKNTVYLQMNSLKPEDTAVYYCNARWARGRYAQYVGLDREYDYWGQGTQVTVSS
polyreactivity (PSR sort gate): high polyreactivity

QDQLVESGGALVQAGGSLRLSCAASGFTYYGNAMGWYRQAPGKERELVAAISSSGGITYYADSVKGRFTISRDNAKNTVYLQMNSLKPEDTAVYYCAAVQGTPDYEYDSWGQGTQVTVSS
polyreactivity (PSR sort gate): low polyreactivity

QVQLVESGGVLVQAGGSLRLSCAASGSTFTYNAMGWYRQAPGKEREFVAANSVGGGITYYADSVKGRFTISRDYAKNTVYLQMKSLKPEDTAVYYCAADGEYPHSEDFEYWGQGTQVTVSS
polyreactivity (PSR sort gate): low polyreactivity

QVQLVESGGGLVQAGGSLRLSCAASGRIFTYYAKGWYRQPPGKERELVAVISSVGGTYYADSVKGRFTISRDNAKNTVYLQMNSLKPEDTAVYYCAALSDSRWHRFGYWGQGTQVTVSS
polyreactivity (PSR sort gate): high polyreactivity

QVQLVESGGGLVQAGGSLRLSCAASGSTFTDYAMGWYRQAPGKERELVAAITNSGSSTNYEDSVKGRFTISRDNAKNTVYLQMNSLKPEDTAVYYCNASSYPWEYYYLYYGYDYWVQGTQVTVSS
polyreactivity (PSR sort gate): low polyreactivity

QVQLVESGGGLVQAGGSLRLSCAASGSTFRYYAMGWYRQAPGKERELVAAISSAGTTYYADSVKGRFTISRDNAKNTVYLQMNSLNPEETAVYYCAAKYSYYTYAGDGGLFSWSYGYWGQGTQVTVSS
polyreactivity (PSR sort gate): low polyreactivity

QVQLVESGGGLVQAGGSLRLSCAASGSTFFYNAMGWYRQAPGKERELVAGITSGGSTYYADSVKGRFTISRDNAKNTVYLQMNSLKPEDTAVYYCAVDVPPWDYDYWGQGTQVTVSS
polyreactivity (PSR sort gate): low polyreactivity

QVQLVESGGGLVQAGGSRRLSCAASGSTFQYNAMGWYRQAPGKDREWVAAITGSGGSTYYADSVKGRFTISRDNSKNTVYLQMNSLKPEDTAVYYCAKRVRSFNWVLARHKYDYWGQGTQVTVSS
polyreactivity (PSR sort gate): low polyreactivity

QVQLVESGGGLVQAGGSLRLICAASGRTFYRNDMGWSRQAPGKERELVAAISGSGGTTYYADSVKGRFTISRYNAKNTVYLQMNSLNPEDTAVDYCAVDGNFFGEVRPYDYWGQGTQVTVSS
polyreactivity (PSR sort gate): low polyreactivity

QVQLVESGGGLVQAGGSLRLSCADSGRTFNYYDMGWYRQAPGKERELVASITGSGGNTYYADSVKGRFTFSRDNAKNTVYLQMNSLKPEDTAVYYCAKAIGNFLYYYWLYHSSYEYDYWGQGTQVTVSS
polyreactivity (PSR sort gate): low polyreactivity

QVQLVESWGGLVQAGGSLRLSCAASGSTFYRYAMGWSRQAPGKERELVAAINTGGSTNYADSVKGRFTISRDNAKNTVYLQMNSLKPEDTAVYYCAARFQYYRKYDYWGQGTQVTVSS
polyreactivity (PSR sort gate): low polyreactivity

QVQLVESGGGLVQAGGSLRLSCAASGRIFLVYAMGRYRQAPGKERELVAAITSDGRTYYADSVKGRFTISRDNAKNTVYLQMNSLKPEDTAVYYCAADRYGAGYLYWPYDYWGQGTQVTVSS
polyreactivity (PSR sort gate): low polyreactivity

QVQLVESGGGLVQAGGSLRLSCAASGSIFFFYDMGWYRKATGKERELVAAISSSGTRTYYADSVKGRFTISRDNAKNTVYLQMNSLKPEDTAVYYCAVVYPSENYYRYDYWGQVTQVTVSS
polyreactivity (PSR sort gate): high polyreactivity

QVQLVESGGGLVQAGGSLRLSCAPSGIIFYGNAMGWYRPAPGKERELVAAITRSGVRTYYADSVKGRFTISRDNAKKTGYLQMNSLNPEDSAVSYCAAVKPVSSRHYPYDYWGQGTQVTVSS
polyreactivity (PSR sort gate): high polyreactivity

QVHLVESGGGLVQAGGSLRLSCAASGLTFQYYAMGWYRQAPGKQRELVAAISSRGGRTYYADSVKGRFTISRDNAKNTVYLQMNSLKPEDTAVYYCAAEWWAPDRVTRGRIYGYWGQGTQVTVSS
polyreactivity (PSR sort gate): high polyreactivity

QVQLVESGGGLVQAGGSLRLSCAASGRIFGGNAMGWYRQAPGKERELVAAINSSGGRTYYADSVKGRFTISRDNAKNTVYLQMNSLKPEDTAVYYCAARVGGNWYDYWGQGTQVTVSS
polyreactivity (PSR sort gate): high polyreactivity

QVQLVESGGGLVQAGGSLRLSCAASGTSGYYAMGWNRQAPGKERELVAGISIGGSTNYADSVKGRFTISRDNAKNTVYLQMNSLKTEDTAVYYCAVDGYVAFSPDRNNYWGQVTQVTVSS
polyreactivity (PSR sort gate): low polyreactivity

QVQLVESGGGLVQAGGSHRISCAASGLTFFRNAMGWYRQAPGKERELVATITSTSSTNYADSVKGRFTISRDNAKNKVYLQMYSVKPEDTAVYYCNARVYYKYVGRMYYWGQGTQVTVSS
polyreactivity (PSR sort gate): high polyreactivity

QVQHVESGGGLVQAGGSLRLSCASSGRIFSDYAMGWYRPAPGKERELVAAISRSGTRTYYADSVKGRFTISRDNAKNTVYFQMISLKPEDTAVYYCAAKTQSGRAGQEEDYWGQGTQVTVSS
polyreactivity (PSR sort gate): high polyreactivity

QDQLVESGGGLVQAGGSLRLICAASGYIFVYNAMGWYRQTPWKERELVAAITDGGGSTYADSVKGRFTISRDNAKNSVYLQMNSLKPEDTAVYYCSARYSDTTWYVLYYYWGQGTQVTVSS
polyreactivity (PSR sort gate): low polyreactivity

QVQLVESWGGLVQAGGSLRLSCGASGYSFQPYTMGWYRQAPGKERELVAAISKSGTRTYYADSVKGRFTISRDNAKNTVYLQMNSLKPEDTAVYYCAARYTGNLFDYWGQGTQVTVSS
polyreactivity (PSR sort gate): high polyreactivity

QVQLVESGGGLVQAGGSLRLSCAASGRTLYHNAMGWYRQAPGKERELVAAISYRGTRTYYADSVKGRFTISRDKAKNTVYLQKNSLTPEDTAVYYCAADTTYATKSDYWGQGTQVTVSS
polyreactivity (PSR sort gate): high polyreactivity

QVQLVESGGGLVQAGGSLRLSCAASGFTFGSYAMGWYRQAPGKERELVAAISSRGGSTYYADSVKGRFTISRDNAKNTVYLQMNSLKPEDTAVYYCNAGYGYIKQYPDYQSKYDYWGQGTQVTVSS
polyreactivity (PSR sort gate): low polyreactivity
